From patent publication US12577311 (Dana-Farber, dated 2026)

Tests used:
Experiment in all cases: cell-based or functional assay
[1] = biological target: monkey CAIX on transduced skrc-59 cells (monkey)
[2] = biological target: mouse CAIX on transduced skrc-59 cells (mouse, UniProt Q8VHB5 32-437)
[3] = biological target: hamster CAIX on transduced skrc-59 cells (hamster)

Chain of mouse CAIX on transduced skrc-59 cells (Q8VHB5 32-437): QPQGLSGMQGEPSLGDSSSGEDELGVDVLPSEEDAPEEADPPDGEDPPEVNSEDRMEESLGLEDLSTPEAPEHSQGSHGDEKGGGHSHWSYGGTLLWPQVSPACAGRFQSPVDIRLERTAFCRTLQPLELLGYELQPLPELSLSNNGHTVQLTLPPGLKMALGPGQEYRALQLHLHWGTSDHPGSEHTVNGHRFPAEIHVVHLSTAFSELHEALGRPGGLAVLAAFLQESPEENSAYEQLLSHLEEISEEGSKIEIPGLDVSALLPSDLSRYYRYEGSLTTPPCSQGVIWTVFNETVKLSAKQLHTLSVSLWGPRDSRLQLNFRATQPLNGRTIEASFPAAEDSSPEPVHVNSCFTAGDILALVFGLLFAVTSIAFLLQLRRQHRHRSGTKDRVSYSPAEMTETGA

B1: anti-CAIX (G36) CAR (scFv, V domains shown)
VH: EVQLVQSGGGVVQPGGSLRLSCAASGFPFSSYAMSWVRQAPGKGLEWVSAISANGGTTYYADSVKGRFTISRDNSKNTLYLQMNSLRAEDTAVYYCANNGNYRGAFDIWGQGTMVTVSS
VL: QSVLTQPPSVSGAPGQRVTISCTGSSSNIGAGFDVHWYQQLPGTAPKLLIYGNTNRPSGVPDRFSGSKSGTSASLAITGLQAEDETDYYCQSYDSRLSAWVFGGGTKLTVLG
killing assay of anti-CAIX (G36) CAR T cells [1]: 100% | killing assay of anti-CAIX (G36) CAR T cells [2]: 50% | killing assay of anti-CAIX (G36) CAR T cells [3]: 50%
